This is an account of results in publication PMC5131575 (Biomaterials, 2016).

This assay has as its target Clathrin triskelions (bovine (purified from bovine brain), UniProt P49951 1-1675). Nature of the assay: SPR. (In SPR one partner is held on a chip, and binding of the other changes the refractive index at the surface.)

Clathrin triskelions, sequence (P49951 whole entry): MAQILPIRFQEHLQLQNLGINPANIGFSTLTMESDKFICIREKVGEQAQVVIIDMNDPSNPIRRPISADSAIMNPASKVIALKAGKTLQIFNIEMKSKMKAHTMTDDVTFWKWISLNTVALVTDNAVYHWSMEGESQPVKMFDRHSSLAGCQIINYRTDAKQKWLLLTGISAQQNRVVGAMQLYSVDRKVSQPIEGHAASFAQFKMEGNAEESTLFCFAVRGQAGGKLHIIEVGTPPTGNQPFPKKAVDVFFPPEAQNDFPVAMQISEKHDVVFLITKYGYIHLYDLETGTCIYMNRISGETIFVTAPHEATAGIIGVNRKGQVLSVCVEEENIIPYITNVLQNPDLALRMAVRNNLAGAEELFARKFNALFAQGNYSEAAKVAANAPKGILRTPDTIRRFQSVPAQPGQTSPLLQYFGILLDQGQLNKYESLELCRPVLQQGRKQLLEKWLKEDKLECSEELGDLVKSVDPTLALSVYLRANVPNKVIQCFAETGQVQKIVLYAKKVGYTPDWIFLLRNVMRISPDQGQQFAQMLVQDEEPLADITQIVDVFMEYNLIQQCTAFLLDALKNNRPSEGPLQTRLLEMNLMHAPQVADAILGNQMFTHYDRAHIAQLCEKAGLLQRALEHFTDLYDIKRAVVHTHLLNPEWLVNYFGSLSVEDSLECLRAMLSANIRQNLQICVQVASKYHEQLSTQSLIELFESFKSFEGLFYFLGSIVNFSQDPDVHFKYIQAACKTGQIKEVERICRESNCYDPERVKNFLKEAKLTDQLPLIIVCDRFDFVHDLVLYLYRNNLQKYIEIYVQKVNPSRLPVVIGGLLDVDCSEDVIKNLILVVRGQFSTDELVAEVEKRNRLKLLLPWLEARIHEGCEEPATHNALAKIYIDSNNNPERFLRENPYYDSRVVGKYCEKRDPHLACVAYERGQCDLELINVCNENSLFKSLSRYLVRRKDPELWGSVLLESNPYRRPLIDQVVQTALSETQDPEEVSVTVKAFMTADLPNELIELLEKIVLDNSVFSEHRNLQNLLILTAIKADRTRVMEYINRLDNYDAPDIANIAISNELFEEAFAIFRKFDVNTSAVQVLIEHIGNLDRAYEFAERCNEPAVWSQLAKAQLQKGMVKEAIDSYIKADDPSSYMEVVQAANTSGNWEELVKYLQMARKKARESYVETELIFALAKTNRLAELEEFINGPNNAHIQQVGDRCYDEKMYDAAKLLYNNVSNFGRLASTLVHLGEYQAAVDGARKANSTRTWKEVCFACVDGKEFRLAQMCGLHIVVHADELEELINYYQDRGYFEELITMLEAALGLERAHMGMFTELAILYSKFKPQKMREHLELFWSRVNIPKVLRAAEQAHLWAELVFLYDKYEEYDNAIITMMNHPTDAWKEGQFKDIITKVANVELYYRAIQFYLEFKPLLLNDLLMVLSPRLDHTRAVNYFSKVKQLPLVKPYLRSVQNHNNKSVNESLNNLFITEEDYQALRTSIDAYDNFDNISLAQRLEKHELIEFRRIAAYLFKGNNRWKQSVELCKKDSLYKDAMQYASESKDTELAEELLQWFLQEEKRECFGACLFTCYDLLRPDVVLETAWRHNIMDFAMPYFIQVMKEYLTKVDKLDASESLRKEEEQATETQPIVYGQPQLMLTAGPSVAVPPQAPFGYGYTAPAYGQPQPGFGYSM

Turning to PWDLW [GFP-Wbox], the Kd – broadly, the constant that tells how readily two partners part at equilibrium – was found to be 3.9 µM.
